Legend:
[1] = cell surface ELISA, HA tag, CHO; conditions: glycan lost
[2] = total lysate western blot; conditions: glycan lost
[3] = cell surface biotinylation, western blot; conditions: glycan lost
[4] = calnexin co-immunolabelling intensity correlation (ER retention); conditions: glycan lost; control: wild type GIPR

B1: GIPR (GIP receptor): N62,77Q (protein)
parent chain: MTTSPILQLLLRLSLCGLLLQRAETGSKGQTAGELYQRWERYRRECQETLAAAEPPSGLACNGSFDMYVCWDYAAPNATARASCPWYLPWHHHVAAGFVLRQCGSDGQWGLWRDHTQCENPEKNEAFLDQRLILERLQVMYTVGYSLSLATLLLALLILSLFRRLHCTRNYIHINLFTSFMLRAAAILSRDRLLPRPGPYLGDQALALWNQALAACRTAQIVTQYCVGANYTWLLVEGVYLHSLLVLVGGSEEGHFRYYLLLGWGAPALFVIPWVIVRYLYENTQCWERNEVKAIWWIIRTPILMTILINFLIFIRILGILLSKLRTRQMRCRDYRLRLARSTLTLVPLLGVHEVVFAPVTEEQARGALRFAKLGFEIFLSSFQGFLVSVLYCFINKEVQSEIRRGWHHCRLRRSLGEEQRQLPERAFRALPSGSGPGEVPTSRGLSSGTLPGPGNEASRELESYC
With B1 the localisation_or_trafficking ([1]; control: wild type HA-GIPR) was “abolishes”, the expression_or_secretion ([2]; control: wild type GIPR-V5) was “decreases” and the localisation_or_trafficking ([3]; control: wild type GIPR-V5) was “abolishes”.

B2: GIPR (GIP receptor): N77Q (protein)
parent chain: MTTSPILQLLLRLSLCGLLLQRAETGSKGQTAGELYQRWERYRRECQETLAAAEPPSGLACNGSFDMYVCWDYAAPNATARASCPWYLPWHHHVAAGFVLRQCGSDGQWGLWRDHTQCENPEKNEAFLDQRLILERLQVMYTVGYSLSLATLLLALLILSLFRRLHCTRNYIHINLFTSFMLRAAAILSRDRLLPRPGPYLGDQALALWNQALAACRTAQIVTQYCVGANYTWLLVEGVYLHSLLVLVGGSEEGHFRYYLLLGWGAPALFVIPWVIVRYLYENTQCWERNEVKAIWWIIRTPILMTILINFLIFIRILGILLSKLRTRQMRCRDYRLRLARSTLTLVPLLGVHEVVFAPVTEEQARGALRFAKLGFEIFLSSFQGFLVSVLYCFINKEVQSEIRRGWHHCRLRRSLGEEQRQLPERAFRALPSGSGPGEVPTSRGLSSGTLPGPGNEASRELESYC
In the case of B2, the localisation_or_trafficking ([1]; control: wild type HA-GIPR) is reported as “decreases” and the localisation_or_trafficking ([3]; control: wild type GIPR-V5) is reported as “decreases”.

B3: GIPR (GIP receptor): complete glycosylation-deficient mutant (N62,77Q) (protein)
parent chain: MTTSPILQLLLRLSLCGLLLQRAETGSKGQTAGELYQRWERYRRECQETLAAAEPPSGLACNGSFDMYVCWDYAAPNATARASCPWYLPWHHHVAAGFVLRQCGSDGQWGLWRDHTQCENPEKNEAFLDQRLILERLQVMYTVGYSLSLATLLLALLILSLFRRLHCTRNYIHINLFTSFMLRAAAILSRDRLLPRPGPYLGDQALALWNQALAACRTAQIVTQYCVGANYTWLLVEGVYLHSLLVLVGGSEEGHFRYYLLLGWGAPALFVIPWVIVRYLYENTQCWERNEVKAIWWIIRTPILMTILINFLIFIRILGILLSKLRTRQMRCRDYRLRLARSTLTLVPLLGVHEVVFAPVTEEQARGALRFAKLGFEIFLSSFQGFLVSVLYCFINKEVQSEIRRGWHHCRLRRSLGEEQRQLPERAFRALPSGSGPGEVPTSRGLSSGTLPGPGNEASRELESYC
In the case of B3, the “localisation_or_trafficking, other: Pearson correlation” value [4] is reported as “increases, about 80% vs almost no correlation”.

B4: GIPR (GIP receptor): N62Q (protein)
parent chain: MTTSPILQLLLRLSLCGLLLQRAETGSKGQTAGELYQRWERYRRECQETLAAAEPPSGLACNGSFDMYVCWDYAAPNATARASCPWYLPWHHHVAAGFVLRQCGSDGQWGLWRDHTQCENPEKNEAFLDQRLILERLQVMYTVGYSLSLATLLLALLILSLFRRLHCTRNYIHINLFTSFMLRAAAILSRDRLLPRPGPYLGDQALALWNQALAACRTAQIVTQYCVGANYTWLLVEGVYLHSLLVLVGGSEEGHFRYYLLLGWGAPALFVIPWVIVRYLYENTQCWERNEVKAIWWIIRTPILMTILINFLIFIRILGILLSKLRTRQMRCRDYRLRLARSTLTLVPLLGVHEVVFAPVTEEQARGALRFAKLGFEIFLSSFQGFLVSVLYCFINKEVQSEIRRGWHHCRLRRSLGEEQRQLPERAFRALPSGSGPGEVPTSRGLSSGTLPGPGNEASRELESYC
With B4 the localisation_or_trafficking ([1]; control: wild type HA-GIPR) was “decreases” and the localisation_or_trafficking ([3]; control: wild type GIPR-V5) was “decreases”.

B5: GLP-1R (GLP1R): N63,82,115Q (protein)
parent chain: MAGAPGPLRLALLLLGMVGRAGPRPQGATVSLWETVQKWREYRRQCQRSLTEDPPPATDLFCNRTFDEYACWPDGEPGSFVNVSCPWYLPWASSVPQGHVYRFCTAEGLWLQKDNSSLPWRDLSECEESKRGERSSPEEQLLFLYIIYTVGYALSFSALVIASAILLGFRHLHCTRNYIHLNLFASFILRALSVFIKDAALKWMYSTAAQQHQWDGLLSYQDSLSCRLVFLLMQYCVAANYYWLLVEGVYLYTLLAFSVLSEQWIFRLYVSIGWGVPLLFVVPWGIVKYLYEDEGCWTRNSNMNYWLIIRLPILFAIGVNFLIFVRVICIVVSKLKANLMCKTDIKCRLAKSTLTLIPLLGTHEVIFAFVMDEHARGTLRFIKLFTELSFTSFQGLMVAILYCFVNNEVQLEFRKSWERWRLEHLHIQRDSSMKPLKCPTSSLSSGATAGSSMYTATCQASCS
With B5 the localisation_or_trafficking ([1]; control: wild type HA-GLP-1R) was “decreases”, the expression_or_secretion ([2]; control: wild type GLP-1R-V5) was “decreases” and the localisation_or_trafficking ([3]; control: wild type GLP-1R-V5) was “decreases”.

B6: GLP-1R (GLP1R): N63Q (protein)
parent chain: MAGAPGPLRLALLLLGMVGRAGPRPQGATVSLWETVQKWREYRRQCQRSLTEDPPPATDLFCNRTFDEYACWPDGEPGSFVNVSCPWYLPWASSVPQGHVYRFCTAEGLWLQKDNSSLPWRDLSECEESKRGERSSPEEQLLFLYIIYTVGYALSFSALVIASAILLGFRHLHCTRNYIHLNLFASFILRALSVFIKDAALKWMYSTAAQQHQWDGLLSYQDSLSCRLVFLLMQYCVAANYYWLLVEGVYLYTLLAFSVLSEQWIFRLYVSIGWGVPLLFVVPWGIVKYLYEDEGCWTRNSNMNYWLIIRLPILFAIGVNFLIFVRVICIVVSKLKANLMCKTDIKCRLAKSTLTLIPLLGTHEVIFAFVMDEHARGTLRFIKLFTELSFTSFQGLMVAILYCFVNNEVQLEFRKSWERWRLEHLHIQRDSSMKPLKCPTSSLSSGATAGSSMYTATCQASCS
For B6, the localisation_or_trafficking ([1]; control: wild type HA-GLP-1R) was “no change”.

B7: GLP-1R (GLP1R): N82Q (protein)
parent chain: MAGAPGPLRLALLLLGMVGRAGPRPQGATVSLWETVQKWREYRRQCQRSLTEDPPPATDLFCNRTFDEYACWPDGEPGSFVNVSCPWYLPWASSVPQGHVYRFCTAEGLWLQKDNSSLPWRDLSECEESKRGERSSPEEQLLFLYIIYTVGYALSFSALVIASAILLGFRHLHCTRNYIHLNLFASFILRALSVFIKDAALKWMYSTAAQQHQWDGLLSYQDSLSCRLVFLLMQYCVAANYYWLLVEGVYLYTLLAFSVLSEQWIFRLYVSIGWGVPLLFVVPWGIVKYLYEDEGCWTRNSNMNYWLIIRLPILFAIGVNFLIFVRVICIVVSKLKANLMCKTDIKCRLAKSTLTLIPLLGTHEVIFAFVMDEHARGTLRFIKLFTELSFTSFQGLMVAILYCFVNNEVQLEFRKSWERWRLEHLHIQRDSSMKPLKCPTSSLSSGATAGSSMYTATCQASCS
With B7 the localisation_or_trafficking ([1]; control: wild type HA-GLP-1R) was “no change”.

B8: GLP-1R (GLP1R): N115Q (protein)
parent chain: MAGAPGPLRLALLLLGMVGRAGPRPQGATVSLWETVQKWREYRRQCQRSLTEDPPPATDLFCNRTFDEYACWPDGEPGSFVNVSCPWYLPWASSVPQGHVYRFCTAEGLWLQKDNSSLPWRDLSECEESKRGERSSPEEQLLFLYIIYTVGYALSFSALVIASAILLGFRHLHCTRNYIHLNLFASFILRALSVFIKDAALKWMYSTAAQQHQWDGLLSYQDSLSCRLVFLLMQYCVAANYYWLLVEGVYLYTLLAFSVLSEQWIFRLYVSIGWGVPLLFVVPWGIVKYLYEDEGCWTRNSNMNYWLIIRLPILFAIGVNFLIFVRVICIVVSKLKANLMCKTDIKCRLAKSTLTLIPLLGTHEVIFAFVMDEHARGTLRFIKLFTELSFTSFQGLMVAILYCFVNNEVQLEFRKSWERWRLEHLHIQRDSSMKPLKCPTSSLSSGATAGSSMYTATCQASCS
For B8, the localisation_or_trafficking ([1]; control: wild type HA-GLP-1R) was “no change”.

Source: publication PMC3296735
